The target of test [1] is RAD51 (UniProt Q06609). As to the kind of experiment: co-IP of FLAG-UHRF1 and RAD51-HA. Conditions: reference: wild type; sites S661.
The target in test [2] is T1, His-UHRF1 (UniProt Q96T88-1 1-793).
T1 construct: UHRF1; last residue R793; source: E. coli BL21(DE3), purified (Ni-NTA agarose)
T1 sequence (looked up): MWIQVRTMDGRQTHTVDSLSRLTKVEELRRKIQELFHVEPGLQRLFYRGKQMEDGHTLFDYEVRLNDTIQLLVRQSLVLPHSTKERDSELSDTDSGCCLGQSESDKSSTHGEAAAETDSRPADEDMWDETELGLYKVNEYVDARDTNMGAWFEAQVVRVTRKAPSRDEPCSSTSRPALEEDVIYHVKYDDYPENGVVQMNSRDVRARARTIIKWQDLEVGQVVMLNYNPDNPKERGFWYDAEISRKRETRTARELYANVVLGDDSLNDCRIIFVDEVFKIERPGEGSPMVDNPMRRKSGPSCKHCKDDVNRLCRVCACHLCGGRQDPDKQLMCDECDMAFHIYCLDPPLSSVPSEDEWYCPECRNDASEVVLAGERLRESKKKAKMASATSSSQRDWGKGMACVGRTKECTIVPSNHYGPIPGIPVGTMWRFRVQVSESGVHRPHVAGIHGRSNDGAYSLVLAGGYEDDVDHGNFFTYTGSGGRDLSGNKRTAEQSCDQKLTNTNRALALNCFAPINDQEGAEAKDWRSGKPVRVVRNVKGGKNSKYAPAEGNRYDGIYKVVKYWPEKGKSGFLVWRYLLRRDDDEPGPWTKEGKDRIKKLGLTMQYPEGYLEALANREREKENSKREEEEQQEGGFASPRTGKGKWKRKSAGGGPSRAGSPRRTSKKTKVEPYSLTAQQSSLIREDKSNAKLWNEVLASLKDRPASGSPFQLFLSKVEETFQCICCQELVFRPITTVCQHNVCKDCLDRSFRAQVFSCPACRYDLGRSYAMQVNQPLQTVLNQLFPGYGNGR
As to the kind of experiment: pull-down; GST pull-down: purified GST-RFWD3 on Glutathione resin, purified His-tagged UHRF1 proteins, 3 h at 4 °C in BCA buffer (20 mM Tris-HCl pH 7.4, 100 mM NaCl); washes with 300 mM NaCl; western blotting. To be noted: both partners purified. (In general: In western blotting, separated proteins are transferred to a membrane and probed.)

Test [3] addresses T1, His-UHRF1. The test can be described thus: pull-down; GST pull-down: GST-RFWD3 on Glutathione resin precipitating His-UHRF1 with His-RAD51 or His-RAD51^R254Q added; His-tagged proteins detected by western blotting. To be noted: both partners purified.
Test [4] has as its target T2, GST-UHRF1 (UniProt Q96T88-1 1-793).
T2 construct: UHRF1; source: E. coli BL21(DE3), purified (Glutathione resin)
T2 sequence (looked up): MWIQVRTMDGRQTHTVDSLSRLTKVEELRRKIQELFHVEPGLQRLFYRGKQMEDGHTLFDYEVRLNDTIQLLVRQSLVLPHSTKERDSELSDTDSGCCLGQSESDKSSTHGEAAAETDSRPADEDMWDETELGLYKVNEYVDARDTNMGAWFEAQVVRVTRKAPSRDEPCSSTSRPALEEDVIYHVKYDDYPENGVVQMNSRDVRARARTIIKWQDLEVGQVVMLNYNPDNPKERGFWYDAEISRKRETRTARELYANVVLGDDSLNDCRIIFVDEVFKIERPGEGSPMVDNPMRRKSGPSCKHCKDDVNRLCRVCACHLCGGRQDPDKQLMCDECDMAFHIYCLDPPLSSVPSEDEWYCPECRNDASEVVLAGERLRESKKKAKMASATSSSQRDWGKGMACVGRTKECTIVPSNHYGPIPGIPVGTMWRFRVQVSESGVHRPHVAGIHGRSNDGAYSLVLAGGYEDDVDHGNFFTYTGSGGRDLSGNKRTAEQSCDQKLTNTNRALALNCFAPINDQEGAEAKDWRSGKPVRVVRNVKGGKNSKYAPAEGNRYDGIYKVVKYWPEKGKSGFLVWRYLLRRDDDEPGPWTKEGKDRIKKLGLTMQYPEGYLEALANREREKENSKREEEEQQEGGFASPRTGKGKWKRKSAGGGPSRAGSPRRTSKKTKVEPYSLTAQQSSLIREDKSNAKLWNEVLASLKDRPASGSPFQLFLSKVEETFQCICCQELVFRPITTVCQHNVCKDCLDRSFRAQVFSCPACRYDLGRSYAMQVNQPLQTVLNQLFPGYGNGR
As to the kind of experiment: pull-down; His pull-down: purified His-RAD51 on Ni-chelated beads, GST-UHRF1 with increasing amounts of GST-RFWD3; Binding Buffer A (50 mM Tris-HCl pH 7.5-8.0, 50 mM NaCl), washes with 20 mM imidazole; western blotting. Conditions: both partners purified.

Data on three molecules can be found in paper PMC12677587, “UHRF1 Controls the Timing of RAD51 Removal During DNA Damage Repair Through Suppressing RFWD3” (Advanced Science, 2025).

Consider UHRF1 (from UniProt Q96T88) S661A, for which, in test [1], the “binding against the reference” value is “stronger”.

B1: GST-RFWD3 (natural protein, UniProt Q6PCD5 1-774, looked up)
chain: MAHEAMEYDVQVQLNHAEQQPAPAGMASSQGGPALLQPVPADVVSSQGVPSILQPAPAEVISSQATPPLLQPAPQLSVDLTEVEVLGEDTVENINPRTSEQHRQGSDGNHTIPASSLHSMTNFISGLQRLHGMLEFLRPSSSNHSVGPMRTRRRVSASRRARAGGSQRTDSARLRAPLDAYFQVSRTQPDLPATTYDSETRNPVSEELQVSSSSDSDSDSSAEYGGVVDQAEESGAVILEEQLAGVSAEQEVTCIDGGKTLPKQPSPQKSEPLLPSASMDEEEGDTCTICLEQWTNAGDHRLSALRCGHLFGYRCISTWLKGQVRKCPQCNKKARHSDIVVLYARTLRALDTSEQERMKSSLLKEQMLRKQAELESAQCRLQLQVLTDKCTRLQRRVQDLQKLTSHQSQNLQQPRGSQAWVLSCSPSSQGQHKHKYHFQKTFTVSQAGNCRIMAYCDALSCLVISQPSPQASFLPGFGVKMLSTANMKSSQYIPMHGKQIRGLAFSSYLRGLLLSASLDNTIKLTSLETNTVVQTYNAGRPVWSCCWCLDEANYIYAGLANGSILVYDVRNTSSHVQELVAQKARCPLVSLSYMPRAASAAFPYGGVLAGTLEDASFWEQKMDFSHWPHVLPLEPGGCIDFQTENSSRHCLVTYRPDKNHTTIRSVLMEMSYRLDDTGNPICSCQPVHTFFGGPTCKLLTKNAIFQSPENDGNILVCTGDEAANSALLWDAASGSLLQDLQTDQPVLDICPFEVNRNSYLATLTEKMVHIYKWE
notes: RFWD3 (ring finger and WD repeat domain 3); source: E. coli BL21(DE3), purified (Glutathione resin)
As to B1, the binding result in test [2] is “binds”.

B2: His-RAD51 (natural protein, UniProt Q06609 1-339, looked up)
chain: MAMQMQLEANADTSVEEESFGPQPISRLEQCGINANDVKKLEEAGFHTVEAVAYAPKKELINIKGISEAKADKILAEAAKLVPMGFTTATEFHQRRSEIIQITTGSKELDKLLQGGIETGSITEMFGEFRTGKTQICHTLAVTCQLPIDRGGGEGKAMYIDTEGTFRPERLLAVAERYGLSGSDVLDNVAYARAFNTDHQTQLLYQASAMMVESRYALLIVDSATALYRTDYSGRGELSARQMHLARFLRMLLRLADEFGVAVVITNQVVAQVDGAAMFAADPKKPIGGNIIAHASTTRLYLRKGRGETRICKIYDSPCLPEAEAMFAINADGVGDAKD
notes: RAD51 recombinase; also called purified RAD51; source: E. coli BL21(DE3), purified (Ni-NTA agarose)
As for B2, the binding result in test [3] and in test [4] was “binds” throughout.
